Assay results published in the nanobody polyreactivity screen of Harvey et al. (2022).

Test: yeast display, Sf9 membrane polyspecificity reagent, FACS + sequencing; frameworks hold sequencing errors
Method in brief: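 Galactose induction of a Saccharomyces cerevisiae BJ5465 synthetic nanobody display library ran 36–48 hours. The cells were then stained for 1 hour at 4 °C with 10% biotinylated, detergent-solubilized Sf9 membrane reagent, pulled down on streptavidin microbeads and FACS-sorted into low and high (top ~1%) gates on expression and reagent-binding fluorescence. Labels for polyreactivity follow the gate of origin.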

With “QVQLVESGGGLVQAGGSLRLSCAASGRTFRGNTMGWYRQAPGKERELVAAISRGGSTNYADSVKGRFTISRDNTKNTVYLQMNSLTPEDTAVYYCAKDRYVRWGRTFEFDYWGQGTQVTVSS” the “polyreactivity (PSR sort gate)” value was “low polyreactivity”.
For “QDQHVESGGGLVQAGGSLRLSCAASGSTFPYYAMGWYRQAPGKERELVAAITSSGGSTYYADSVKGRFTISRVNAKNTVYLQMNSLKPEDTAVYYCANGYGPYRQMNYWGQGTQVTVSS”, the “polyreactivity (PSR sort gate)” value was “low polyreactivity”.
For “QVQLVESAGGLVQAGGSLRLSCAASGSIIYYNAMGWYRQAPGKERELVAAITGSGGSTYYADSVKGRFTISRDNAKNTVYLQMNSLKPEDTAVYYCAADYSLYGWWFRNDYWGQGTQVTVSS”, the “polyreactivity (PSR sort gate)” value was “low polyreactivity”.
With “QVQLVESGGGLVQAGGSLRLSCAASGFIFSYNVMGWYRQAPGKERELVAAISSGGGRTYYADSVKGRFTISRDNAKNTVYLQMNSLKPEDTAVYYCNAYRLSRVQLYYWGQGTQVTVSS” the “polyreactivity (PSR sort gate)” value was “high polyreactivity”.
With “QVQLVESGGGLVQAGGSLRLSCAASGITFYVNAMGWYRQAPGKERELVAAITQSVDITSYADSVKGRFTISRDNAMNTFYLQINRLKPEYTAVYYCATRGIPDDNARDYWGQGTQVTVSS” the “polyreactivity (PSR sort gate)” value was “low polyreactivity”.
With “QVQLVESGGGLVQAGGSLRLSCAASGSTFTWYAMGWYRQAPGKERELVAAISGSGGRTFYADSVKGRFTISRDNAKNTVYLQMNSLKPEDTAVYYCNAVRVSIPYIYTMDYWGQGTQVTVSS” the “polyreactivity (PSR sort gate)” value was “high polyreactivity”.
For “QFHLVESGGGLVQAGGSLRLSCAAYGIIFYSYTMGWYRQAPGKERELVAAISRSGGSTYYADSVKGRFTISRDNAKNTVYLQMNSLKPEDTAVYYCAQVGNTAGYDYWGQGSQVTVSS”, the “polyreactivity (PSR sort gate)” value was “high polyreactivity”.
With “QVQLVESGGGLVQAGGSLRLSCAASGSTLIANAMGWYRQAPGKERELVAGITYRGGDITTYADSVKGSFTNSSDNANNTVYLQINTLKPEDTAVYYCAAPVVWPTWARGGYWGQGTQVTVSS” the “polyreactivity (PSR sort gate)” value was “low polyreactivity”.
With “QVQLVESGGGLVQAGGSLRLSCAASGNIFDEYTMGWYRQAPGKERELVAAISWRGGSTYYADSVKGRFTISRDNAKNTVYLQMNSLKPEDTAVYYCNKAYPADYDYWGQGTQVTVSS” the “polyreactivity (PSR sort gate)” value was “low polyreactivity”.
In the case of “QVQLVESGGGLVQAGGSLRLSCAASGFTISPYAMGWYRQAPGKERELVAGITRNGGSTYYADSVKGRFTISRDNAKNTVYLQMNSLKPEDTAVYYCITKYAVEFDYWGQGTQVTVSS”, the “polyreactivity (PSR sort gate)” value is reported as “low polyreactivity”.
In the case of “QVQLVESGGGLVQAGGSLRLSCAASGSTFFKYAMGWYRQAPGKERELVAGITSDGSTNYADSVKGRFTISRDNAKNTVYLQMNSLKPEDTAVYYCAADGSKWGVGTYDYWGQGTQVTVSS”, the “polyreactivity (PSR sort gate)” value is reported as “low polyreactivity”.
For “QVQIVESGGGLVQAGGSLRLSCASYGFTFWGYTMGWYRQAPGKERELVAAITSNGSTYYADSVKGRFTISRDNAQNTVYLQMNSLKPEDTAVYYCAATRGSSEYFYWGQGSQVTVSS”, the “polyreactivity (PSR sort gate)” value was “low polyreactivity”.
With “QVQLVESGGGLVQAGGSLRISCAPSGITLRRNAMGRYRQAPGKERELVARISTTGGSTYYADSVKGRFTISRDNAKNTVYLQMNSLKPEDTAVYYCAARAPLGFWHYDYWGQGTQVTVSS” the “polyreactivity (PSR sort gate)” value was “high polyreactivity”.
For “QVQLVESGGGLVQAGGSLRLSCAASGIIFLNNAMGCYRQAPGKERELVAAITRTSTSTYYADSVKGRFTISRDNAKNTVYLQMNSLKPEDTAVYYSLVYWGQGTQVTVSS”, the “polyreactivity (PSR sort gate)” value was “low polyreactivity”.
With “QVQLVESGGGLVQAGGSLRLSCAPSGSTFDRNDMGWYRQAPGKERELVAAISRVSSTNYADSVKVRFTISRDNAKNTVYLQMNSLKPADTAVYYCAADRAGSIMNYWGQGTQETVSS” the “polyreactivity (PSR sort gate)” value was “low polyreactivity”.
For “QVQLVESGGGLVQAGGSLRLSCAASGIIYVYAMGWYRQAPGKERELVAAITWSGGSTYYADSVKGRFTISRDNAKNTVYLQMNTLKPEDTAVYYCARGQGGEYDLDYDYWGQGTQVTVSS”, the “polyreactivity (PSR sort gate)” value was “low polyreactivity”.
In the case of “QVQLVESGGGLVQAGGSLRLSCAASGRTFGKNAMGWYRQAPGKERELVAAISGSGGSTYYADSVKGRFTISRDNAKNTVSLQMNSLKPEDTADYYCAKSYYGKYYPSDYWGQGTQVTVSS”, the “polyreactivity (PSR sort gate)” value is reported as “low polyreactivity”.
In the case of “QVQLVESGGGLVQAGGSLRLSCSASGSIFRRYAMGWYRQAPGKVRELVAVITTDGSTYYADSVKGRFTISRDNAKNTVYLQMHSLKPEDTAVYYCAAEDYVIGYSGYDYWGQGTQVTVSS”, the “polyreactivity (PSR sort gate)” value is reported as “low polyreactivity”.
In the case of “QVQLVESGGGLVQAGGSLRLSCAASGRTFGIYAMGWYRQAPGKERELVASISWSGGRTYYADSVKGRFTISRDNAKNTVYLQMNSLKPEDTAVYYCAAYGVYYPRSWQYFDWYGYWGQGTQVTVSS”, the “polyreactivity (PSR sort gate)” value is reported as “high polyreactivity”.
For “QVQLVESGGGLVQAGGSLRLSCDASGRTFRYYAMGWYRQAPGKEREMVAAITRSGGSTYYADSVKGRFTISRDNAKNTVYLQMNSLKAVDTAVYYCAESRFYSYGIDYDYWGQGTQVTVSS”, the “polyreactivity (PSR sort gate)” value was “high polyreactivity”.
With “QVQLVESGGGLVQAGGSLRLSCAASGSIFYVNAMGWYRQAPGKERELVAAISYRGGSTYYADSVKGRFTISRDNAKNTVYLQMNSLKPEDTAVYYCAARGYYRPSQTTGRIKYDYWGQGTQVTVSS” the “polyreactivity (PSR sort gate)” value was “high polyreactivity”.
With “QVQLVESGGGLVQAGGSLRLSCAASGSTFPFYAMGWYRQAPGKERELVATISSDGSTNYADSVKGRFTISRDNAKNTVYLQMNSLKPEDTAVYYCNALARWWAYYDYGYWGQGTQVTVSS” the “polyreactivity (PSR sort gate)” value was “low polyreactivity”.
In the case of “QEQLQVSGGHLVQAGGSLRLSCAASGTIYGLTSMGWYRQAPGKEREFVAAITDGGNTNYADSVKGRFTISRDNAKKTVYLLMFCLKPEDTAVYYCAVLFSDDAYYAYWCQGTQVTVSS”, the “polyreactivity (PSR sort gate)” value is reported as “low polyreactivity”.
For “QVQLVESGGGLVQAGGSLRLSCAASGIIFYYSAMGCYRQAPGKERELVAAISWSGGTTIYADSVKGRFTISLDNAKSTVYLQMNSLKPKDTAVYYCAAAFSPGWWSRHTYDYDYWGQGTQLTVSS”, the “polyreactivity (PSR sort gate)” value was “high polyreactivity”.
With “QVQLVESGGGLVQAGGSLRLSCAASGRNFGYYVMGWYRQAPGKERELVAAIRSSADSTYYADSVKGRFTISRDNAKNTVYLQMNSLKPEDTAVYYCAAQSPAYYTKCYWGQGTQVTVSS” the “polyreactivity (PSR sort gate)” value was “low polyreactivity”.
With “QVQLVESGGGLVQAGGSLRLSCSASGITFYRYVMGWYRQAPGKERELVAAISRGGGSTYYADSVKGRFTISRDNAKNTVYLQMNSLKPEDTAVYYCAARAWVQGGIGGQSWFDYWGQGTQVTVSS” the “polyreactivity (PSR sort gate)” value was “high polyreactivity”.
With “QVQLVESGGGLVQAGGSLRLSCAASGSTFVGYAMGWYRQAPGKERELVAAITTDGGSTYYADSVKVRFTISRDNAKNTVYLQMNSLKPEDTAVYYCAADHRVYPRDDWDSPDEFGYWGQGTQVTVSS” the “polyreactivity (PSR sort gate)” value was “low polyreactivity”.
In the case of “QVQLVESGGGLVQAGGSLRLSCAASGSIFTPYTMGWYRQAPGKERELVAAISWGADSTYYADSVKGRFTISRDNAKNTVYLQMISLKPEDTAVYYCGDDYWGWSNGYEYWGQGTQVTVSS”, the “polyreactivity (PSR sort gate)” value is reported as “low polyreactivity”.
For “QVQLVESGGGLVQAGGSLRLSCAAYGRTISRNTMAWYRQAPGKERELVAGITYGGDRTYYADSVKGRFTISRDNAKNTVYLQMNSLKPEDTSVYYCAAPWYWKGLRDYWGQGTQVTVSS”, the “polyreactivity (PSR sort gate)” value was “low polyreactivity”.
With “QVQLVESGGGLVQAGGSLRLSCAAYYYNMGWYRQAPGKESELVASITWSDVSTYYADSVKRRFTISRDNAKNTVYLQMNSLKPEDTAVYYCAKGTWADAYGYWGQGTQVTVSS” the “polyreactivity (PSR sort gate)” value was “low polyreactivity”.
For “QVQLVESGGGLVQAGGSLRLSCAASGRIFVYYTMGWYRQAPGKERELVAAITGSGGSTYYADSVKGRFTISRDNAKNTVYLQMNSLKPEDTAVYYCAVYDSYRKFKYWGQGTQVTVSS”, the “polyreactivity (PSR sort gate)” value was “high polyreactivity”.
With “QVQLVESGGGLVQAGGSLRLSCAASGLTFKYYAMGWYRQAPGKERELVAAITSTGGRTYYADSVKGRFTISRDNAKNTVYLQMNSLKPEDTAVYYCAAYYVGSSKYDSWGQGTQVTVSS” the “polyreactivity (PSR sort gate)” value was “low polyreactivity”.
For “QVQLVESGGGLVQAGGSLRLSCAASGFTFNYNAMGWYRQAPGKERELVAAISRSGGRTYYADSVKGRFTISRDNAKNTVYLQMNSLKPEDTAVYYCAADSRTNGYDYWGQGTQVTVSS”, the “polyreactivity (PSR sort gate)” value was “high polyreactivity”.
With “QVQLVESGGGLVQARGSLRLSCAASGSIFYPYAMGWYRQAPGKERELVAGISRSGASTYYADSVKGRFTISRDNAKNTVYLQMNSLKPEDTAVYYCAADDWTRNYWGQGTQVTVSS” the “polyreactivity (PSR sort gate)” value was “low polyreactivity”.
With “QVQLVESGGGLVQAGGSLRLSCAPSGRTFYLNAMGWYRPAPGKERELVAAIRFSGGSTYYADSVKGRFTISRDNAKNTVYLQMNSLKPEDTAVYYCNAGPYLSLYPTVSEYGYWGQGTQVTVSS” the “polyreactivity (PSR sort gate)” value was “low polyreactivity”.
For “QVQLVESGGGLVQAGGSLRLSCAASGITLYRYVMGWYRQAPGKERELLADISGRGTSTYYADSVKGRFTISRDNAKNTVYLQMNSLNAEDTAVYYCNAEFTKSGALVIPYTYYYAEDYWGQGSQVTVSS”, the “polyreactivity (PSR sort gate)” value was “low polyreactivity”.
With “QVQLEESGGGLVQAGGSLRLSCAASGSTFGYYAMGWYRKAPGKERELVAAISRSGGSTYYADSVKGRFTISRDNAKNTVYLQMNSLKPEDTAVYYCAAKVYGAVYHYYYWGQGTQVTVSS” the “polyreactivity (PSR sort gate)” value was “high polyreactivity”.
For “QVHLVESGGGFVQAGGSLRLSCAASGSICGSYAMGWYRQAPGKERELVAAISKSGGNTYYADSVKGRFTISRDNAKNTVYLQMNSVKPEDTAVYYCAAYGFYRWRGYDYSGQGTQVTVSS”, the “polyreactivity (PSR sort gate)” value was “high polyreactivity”.
With “QVQLVESGGGLVQAGGSLRLSCAASGFTFVYNAMGWYRQAPGKERELVAAISSSGGRTYYADSVKGRFTISRDNAKNTVYLQMNSLKPEDTAVYYCAVEYPVYYYVEYDYWGQGTQVTVSS” the “polyreactivity (PSR sort gate)” value was “high polyreactivity”.
With “QVQLVESGGGLVQAGGSLRLSCAASGFIFRWYTMGWYRQAPGKERELVAAISSSGGTTYYADSVKGRFTISRDNAKNTVYLQMNSLKPEDTAVYYCTTRYPLGGTYTRYPLKGDYWGQGTQVTVSS” the “polyreactivity (PSR sort gate)” value was “high polyreactivity”.
With “QVQLVESCGGLVHAGGSLRLSCAATGFTIAENVKGWYRQSPGKERELVAAIDYSDGITYYADSVKGRFTISRDNAKNTVYLQMNSLKPEDTAVYYCATQYLIQTKDYSWGQGTQVTVSS” the “polyreactivity (PSR sort gate)” value was “high polyreactivity”.
In the case of “QVQLVVSGPGLFQAGGSLRISCAPSGFIFYNYAMGWYRQAPGKERELVAAISRSGGSTYYADSVKGRFTISRDNAKNTVYLQMNSLKPEDTAVYYCKVGYGRGSTIGGYDYWGQGTQVTVSS”, the “polyreactivity (PSR sort gate)” value is reported as “high polyreactivity”.
For “QVQHVETGGGLVQAGGSLRLSCAASGSTFVLYAKGWYRQAPGKERELVAAITWSGDDTYYADSVKGRFTISRDNAKNTVYLQMISLKPEDTAVYYCAAAYAYWGQGTQVTVSS”, the “polyreactivity (PSR sort gate)” value was “low polyreactivity”.
